According to patent US20050095615:

Molecular target: His6/LUMIO tag/MBP protein expressed from pET160-GW/MBP [MBP: P0AEX9]

B1: TEV protease (protein)
chain: GESLFKGPRDYNPISSTICHLTNESDGHTTSLYGIGFGPFIITNKHLFRRNNGTLLVQSLHGVFKVKNTTTLQQHLIDGRDMIIIRMPKDFPPFPQKLKFREPQREERICLVTTNFQTKSMSSMVSDTSCTFPSSDGIFWKHWIQTKDGQCGSPLVSTRDGFIVGIHSASNFTNTNNYFTSVPKNFMELLTNQEAQQWVSGWRLNADSVLWGGHKVFMSKPEEPFQPVKEATQLMNELVYSQ
- cleavage by TEV protease: The TEV protease efficiently cleaves the N-terminal sequences from partially purified protein.
- digestion with TEV protease analyzed by SDS-PAGE: The results demonstrated that the pET160-DEST vector can encode a functional TEV cleavage site.
